According to patent publication US20240034774A1 (Gilead, published 2024):

What was measured:
BSA = BSA (UniProt P02769 25-607); assay: single-point ELISA, BSA control
gp120 SHIV SF162 P3 = gp120 SHIV SF162 P3 (SHIV SF162 P3); assay: single-point ELISA at EC50 conc. of A-1
gp120 CAAN = gp120 CAAN (HIV (CAAN)); assay: single-point ELISA at EC50 conc. of A-1
gp120 Bal = gp120 Bal (HIV (Bal)); assay: single-point ELISA at EC50 conc. of A-1

| Binder | ELISA A450 (BSA) | ELISA A450 (gp120 SHIV SF162 P3) | ELISA A450 (gp120 CAAN) | ELISA A450 (gp120 Bal) |
| --- | --- | --- | --- | --- |
| 1.34.31-1 (antibody, human IgG1, kappa) heavy: QVQLVQSGAEVKKPGASVRVSCKASGYNIRDYFIHWWRQAPGQGLQWVGWINPKTGQPNNPRQFQGRVTLTRHASWDFDTFSFYMDLKALRSDDTAVYFCARQRTDYWDFDVWGSGTQVTVSSASTKGPSVFPLAPSSKSTSGGTAALGCLVKDYFPEPVTVSWNSGALTSGVHTFPAVLQSSGLYSLSSVVTVPSSSLGTQTYICNVNHKPSNTKVDKKVEPKSCDKTHTCPPCPAPELLAGPDVFLFPPKPKDTLMISRTPEVTCVVVDVSHEDPEVKFNWYVDGVEVHNAKTKPREEQYNSTYRVVSVLTVLHQDWLNGKEYKCKVSNKALPLPEEKTISKAKGQPREPQVYTLPPSREEMTKNQVSLTCLVKGFYPSDIAVEWESNGQPENNYKTTPPVLDSDGSFFLYSKLTVDKSRWQQGNVFSCSVLHEALHSHYTQKSLSLSPGK light: DIQMTQSPSSLSASVGDTVTITCQANGYLNWYQQRRGKAPKLLIYDGSKLERGVPSRFSGRRWGQEYTLTISSLQPEDIATYFCQVYEFVVPGTNLDLKRTVAAPSVFIFPPSDEQLKSGTASVVCLLNNFYPREAKVQWKVDNALQSGNSQESVTEQDSKDSTYSLSSTLTLSKADYEKHKVYACEVTHQGLSSPVTKSFNRGEC | 0.06 A450 | 0.77 A450 | 0.92 A450 | 0.91 A450 |
| 1.34.32-1 (antibody, human IgG1, kappa) heavy: QVQLVQSGAEVKKPGASVRVSCKASGYNIRDYFIHWWRQAPGQGLQWVGWINPKTGQPNNPRQFQGRVTLTRHASWDFDTFSFYMDLKALRSDDTAVYFCARQRTDYWDFDVWGSGTQVTVSSASTKGPSVFPLAPSSKSTSGGTAALGCLVKDYFPEPVTVSWNSGALTSGVHTFPAVLQSSGLYSLSSVVTVPSSSLGTQTYICNVNHKPSNTKVDKKVEPKSCDKTHTCPPCPAPELLAGPDVFLFPPKPKDTLMISRTPEVTCVVVDVSHEDPEVKFNWYVDGVEVHNAKTKPREEQYNSTYRVVSVLTVLHQDWLNGKEYKCKVSNKALPLPEEKTISKAKGQPREPQVYTLPPSREEMTKNQVSLTCLVKGFYPSDIAVEWESNGQPENNYKTTPPVLDSDGSFFLYSKLTVDKSRWQQGNVFSCSVLHEALHSHYTQKSLSLSPGK light: DIQMTQSPSSLSASVGDTVTITCQANGYLNWYQQRRGKAPKLLIYDGSKLERGVPSRFSGRRWGQEYTLTISSLQPEDIATYFCQVYEFVTPGTRLDLKRTVAAPSVFIFPPSDEQLKSGTASVVCLLNNFYPREAKVQWKVDNALQSGNSQESVTEQDSKDSTYSLSSTLTLSKADYEKHKVYACEVTHQGLSSPVTKSFNRGEC | 0.06 A450 | 0.69 A450 | 0.97 A450 | 0.93 A450 |
| 1.34.33-1 (antibody, human IgG1, kappa) heavy: QVQLVQSGAEVKKPGASVRVSCKASGYNIRDYFIHWWRQAPGQGLQWVGWINPKTGQPNNPRQFQGRVTLTRHASWDFDTFSFYMDLKALRSDDTAVYFCARQRTDYWDFDVWGSGTQVTVSSASTKGPSVFPLAPSSKSTSGGTAALGCLVKDYFPEPVTVSWNSGALTSGVHTFPAVLQSSGLYSLSSVVTVPSSSLGTQTYICNVNHKPSNTKVDKKVEPKSCDKTHTCPPCPAPELLAGPDVFLFPPKPKDTLMISRTPEVTCVVVDVSHEDPEVKFNWYVDGVEVHNAKTKPREEQYNSTYRVVSVLTVLHQDWLNGKEYKCKVSNKALPLPEEKTISKAKGQPREPQVYTLPPSREEMTKNQVSLTCLVKGFYPSDIAVEWESNGQPENNYKTTPPVLDSDGSFFLYSKLTVDKSRWQQGNVFSCSVLHEALHSHYTQKSLSLSPGK light: DIQMTQSPSSLSASVGDTVTITCQANGYLNWYQQRRGKAPKLLIYDGSNLERGVPSRFSGRRWGQEYTLTISSLQPEDIATYFCQVYEFVVPGTNLDIKRTVAAPSVFIFPPSDEQLKSGTASVVCLLNNFYPREAKVQWKVDNALQSGNSQESVTEQDSKDSTYSLSSTLTLSKADYEKHKVYACEVTHQGLSSPVTKSFNRGEC | 0.06 A450 | 0.82 A450 | 1.04 A450 | 1.1 A450 |
| 1.34.34-1 (antibody, human IgG1, kappa) heavy: QVQLVQSGAEVKKPGASVRVSCKASGYNIRDYFIHWWRQAPGQGLQWVGWINPKTGQPNNPRQFQGRVTLTRHASWDFDTFSFYMDLKALRSDDTAVYFCARQRTDYWDFDVWGSGTQVTVSSASTKGPSVFPLAPSSKSTSGGTAALGCLVKDYFPEPVTVSWNSGALTSGVHTFPAVLQSSGLYSLSSVVTVPSSSLGTQTYICNVNHKPSNTKVDKKVEPKSCDKTHTCPPCPAPELLAGPDVFLFPPKPKDTLMISRTPEVTCVVVDVSHEDPEVKFNWYVDGVEVHNAKTKPREEQYNSTYRVVSVLTVLHQDWLNGKEYKCKVSNKALPLPEEKTISKAKGQPREPQVYTLPPSREEMTKNQVSLTCLVKGFYPSDIAVEWESNGQPENNYKTTPPVLDSDGSFFLYSKLTVDKSRWQQGNVFSCSVLHEALHSHYTQKSLSLSPGK light: DIQMTQSPSSLSASVGDTVTITCQANGYLNWYQQRRGKAPKLLIYDGSNLERGVPSRFSGRRWGQEYTLTISSLQPEDIATYFCQVYEFVTPGTRLDIKRTVAAPSVFIFPPSDEQLKSGTASVVCLLNNFYPREAKVQWKVDNALQSGNSQESVTEQDSKDSTYSLSSTLTLSKADYEKHKVYACEVTHQGLSSPVTKSFNRGEC | 0.06 A450 | 0.7 A450 | 0.88 A450 | 0.89 A450 |
| 1v2-1 (antibody, human IgG1, kappa) heavy: QVQLLQSGAAVTKPGASVRVSCEASGYNIRDYFIHWWRQAPGQGLQWVGWINPKTGQPNNPRQFQGRVSLTRHASWDFDTYSFYMDLKALRSDDTAVYFCARQRSDYWDFDVWGSGTQVTVSSASTKGPSVFPLAPSSKSTSGGTAALGCLVKDYFPEPVTVSWNSGALTSGVHTFPAVLQSSGLYSLSSVVTVPSSSLGTQTYICNVNHKPSNTKVDKKVEPKSCDKTHTCPPCPAPELLAGPDVFLFPPKPKDTLMISRTPEVTCVVVDVSHEDPEVKFNWYVDGVEVHNAKTKPREEQYNSTYRVVSVLTVLHQDWLNGKEYKCKVSNKALPLPEEKTISKAKGQPREPQVYTLPPSREEMTKNQVSLTCLVKGFYPSDIAVEWESNGQPENNYKTTPPVLDSDGSFFLYSKLTVDKSRWQQGNVFSCSVLHEALHSHYTQKSLSLSPGK light: DIQMTQSPSSLSASVGDTVTITCQANGYLNWYQQRRGKAPKLLIYDGSKLERGVPSRFSGRRWGQEYNLTINNLQPEDIATYFCQVYEFVVPGTRLDLKRTVAAPSVFIFPPSDEQLKSGTASVVCLLNNFYPREAKVQWKVDNALQSGNSQESVTEQDSKDSTYSLSSTLTLSKADYEKHKVYACEVTHQGLSSPVTKSFNRGEC | 0.08 A450 | 1.29 A450 | 1 A450 | 1.03 A450 |
| 1.22.1-1 (antibody, human IgG1, kappa) heavy: QVQLLQSGAAVTKPGASVRVSCEASGYNIRDYFIHWWRQAPGQGLQWVGWINPKTGQPNNPRQFQGRVSLTRHASTFSFYMDLKALRSDDTAVYFCARQRSDYWDFDVWGSGTQVTVSSASTKGPSVFPLAPSSKSTSGGTAALGCLVKDYFPEPVTVSWNSGALTSGVHTFPAVLQSSGLYSLSSVVTVPSSSLGTQTYICNVNHKPSNTKVDKKVEPKSCDKTHTCPPCPAPELLAGPDVFLFPPKPKDTLMISRTPEVTCVVVDVSHEDPEVKFNWYVDGVEVHNAKTKPREEQYNSTYRVVSVLTVLHQDWLNGKEYKCKVSNKALPLPEEKTISKAKGQPREPQVYTLPPSREEMTKNQVSLTCLVKGFYPSDIAVEWESNGQPENNYKTTPPVLDSDGSFFLYSKLTVDKSRWQQGNVFSCSVLHEALHSHYTQKSLSLSPGK light: DIQMTQSPSSLSASVGDTVTITCQANGYLNWYQQRRGKAPKLLIYDGSKLERGVPSRFSGRRWGQEYNLTINNLQPEDIATYFCQVYEFVVPGTRLDLKRTVAAPSVFIFPPSDEQLKSGTASVVCLLNNFYPREAKVQWKVDNALQSGNSQESVTEQDSKDSTYSLSSTLTLSKADYEKHKVYACEVTHQGLSSPVTKSFNRGEC | 0.06 A450 | 0.78 A450 | 0.87 A450 | 1.03 A450 |
| 1.2.2-1 (antibody, human IgG1) heavy: QVQLLQSGAEVKKPGASVRVSCEASGYNIRDYFIHWWRQAPGQGLQWVGWINPKTGQPNNPRQFQGRVSLTRHASWDFDTFSFYMDLKALRSDDTAVYFCARQRSDYWDFDVWGSGTMVTVSSASTKGPSVFPLAPSSKSTSGGTAALGCLVKDYFPEPVTVSWNSGALTSGVHTFPAVLQSSGLYSLSSVVTVPSSSLGTQTYICNVNHKPSNTKVDKKVEPKSCDKTHTCPPCPAPELLAGPDVFLFPPKPKDTLMISRTPEVTCVVVDVSHEDPEVKFNWYVDGVEVHNAKTKPREEQYNSTYRVVSVLTVLHQDWLNGKEYKCKVSNKALPLPEEKTISKAKGQPREPQVYTLPPSREEMTKNQVSLTCLVKGFYPSDIAVEWESNGQPENNYKTTPPVLDSDGSFFLYSKLTVDKSRWQQGNVFSCSVLHEALHSHYTQKSLSLSPGK VL: DIQMTQSPSSLSASVGDTVTITCQANGYLNWYQQKPGKAPKLLIYDGSKLERGVPSRFSGRRWGQEYNLTINNLQPEDIATYFCQVYEFVVPGTKVDIK | 0.06 A450 | 0.97 A450 | 0.8 A450 | 0.91 A450 |
| 1.1.2-1 (antibody, human IgG1) heavy: QVQLLQSGAAVTKPGASVRVSCEASGYNIRDYFIHWWRQAPGQGLQWVGWINPKTGQPNNPRQFQGRVSLTRHASWDFDTFSFYMDLKALRSDDTAVYFCARQRSDYWDFDVWGSGTQVTVSSASTKGPSVFPLAPSSKSTSGGTAALGCLVKDYFPEPVTVSWNSGALTSGVHTFPAVLQSSGLYSLSSVVTVPSSSLGTQTYICNVNHKPSNTKVDKKVEPKSCDKTHTCPPCPAPELLAGPDVFLFPPKPKDTLMISRTPEVTCVVVDVSHEDPEVKFNWYVDGVEVHNAKTKPREEQYNSTYRVVSVLTVLHQDWLNGKEYKCKVSNKALPLPEEKTISKAKGQPREPQVYTLPPSREEMTKNQVSLTCLVKGFYPSDIAVEWESNGQPENNYKTTPPVLDSDGSFFLYSKLTVDKSRWQQGNVFSCSVLHEALHSHYTQKSLSLSPGK VL: DIQMTQSPSSLSASVGDTVTITCQANGYLNWYQQKPGKAPKLLIYDGSKLERGVPSRFSGRRWGQEYNLTINNLQPEDIATYFCQVYEFVVPGTKVDIK | 0.06 A450 | 1.01 A450 | 0.93 A450 | 0.95 A450 |
